In article PMC4454200:

Target: Full-length mouse melanocyte-type myosin-5a (Myo5a-FL) (mouse) (UniProt Q99104)
Sequence (Q99104 whole entry): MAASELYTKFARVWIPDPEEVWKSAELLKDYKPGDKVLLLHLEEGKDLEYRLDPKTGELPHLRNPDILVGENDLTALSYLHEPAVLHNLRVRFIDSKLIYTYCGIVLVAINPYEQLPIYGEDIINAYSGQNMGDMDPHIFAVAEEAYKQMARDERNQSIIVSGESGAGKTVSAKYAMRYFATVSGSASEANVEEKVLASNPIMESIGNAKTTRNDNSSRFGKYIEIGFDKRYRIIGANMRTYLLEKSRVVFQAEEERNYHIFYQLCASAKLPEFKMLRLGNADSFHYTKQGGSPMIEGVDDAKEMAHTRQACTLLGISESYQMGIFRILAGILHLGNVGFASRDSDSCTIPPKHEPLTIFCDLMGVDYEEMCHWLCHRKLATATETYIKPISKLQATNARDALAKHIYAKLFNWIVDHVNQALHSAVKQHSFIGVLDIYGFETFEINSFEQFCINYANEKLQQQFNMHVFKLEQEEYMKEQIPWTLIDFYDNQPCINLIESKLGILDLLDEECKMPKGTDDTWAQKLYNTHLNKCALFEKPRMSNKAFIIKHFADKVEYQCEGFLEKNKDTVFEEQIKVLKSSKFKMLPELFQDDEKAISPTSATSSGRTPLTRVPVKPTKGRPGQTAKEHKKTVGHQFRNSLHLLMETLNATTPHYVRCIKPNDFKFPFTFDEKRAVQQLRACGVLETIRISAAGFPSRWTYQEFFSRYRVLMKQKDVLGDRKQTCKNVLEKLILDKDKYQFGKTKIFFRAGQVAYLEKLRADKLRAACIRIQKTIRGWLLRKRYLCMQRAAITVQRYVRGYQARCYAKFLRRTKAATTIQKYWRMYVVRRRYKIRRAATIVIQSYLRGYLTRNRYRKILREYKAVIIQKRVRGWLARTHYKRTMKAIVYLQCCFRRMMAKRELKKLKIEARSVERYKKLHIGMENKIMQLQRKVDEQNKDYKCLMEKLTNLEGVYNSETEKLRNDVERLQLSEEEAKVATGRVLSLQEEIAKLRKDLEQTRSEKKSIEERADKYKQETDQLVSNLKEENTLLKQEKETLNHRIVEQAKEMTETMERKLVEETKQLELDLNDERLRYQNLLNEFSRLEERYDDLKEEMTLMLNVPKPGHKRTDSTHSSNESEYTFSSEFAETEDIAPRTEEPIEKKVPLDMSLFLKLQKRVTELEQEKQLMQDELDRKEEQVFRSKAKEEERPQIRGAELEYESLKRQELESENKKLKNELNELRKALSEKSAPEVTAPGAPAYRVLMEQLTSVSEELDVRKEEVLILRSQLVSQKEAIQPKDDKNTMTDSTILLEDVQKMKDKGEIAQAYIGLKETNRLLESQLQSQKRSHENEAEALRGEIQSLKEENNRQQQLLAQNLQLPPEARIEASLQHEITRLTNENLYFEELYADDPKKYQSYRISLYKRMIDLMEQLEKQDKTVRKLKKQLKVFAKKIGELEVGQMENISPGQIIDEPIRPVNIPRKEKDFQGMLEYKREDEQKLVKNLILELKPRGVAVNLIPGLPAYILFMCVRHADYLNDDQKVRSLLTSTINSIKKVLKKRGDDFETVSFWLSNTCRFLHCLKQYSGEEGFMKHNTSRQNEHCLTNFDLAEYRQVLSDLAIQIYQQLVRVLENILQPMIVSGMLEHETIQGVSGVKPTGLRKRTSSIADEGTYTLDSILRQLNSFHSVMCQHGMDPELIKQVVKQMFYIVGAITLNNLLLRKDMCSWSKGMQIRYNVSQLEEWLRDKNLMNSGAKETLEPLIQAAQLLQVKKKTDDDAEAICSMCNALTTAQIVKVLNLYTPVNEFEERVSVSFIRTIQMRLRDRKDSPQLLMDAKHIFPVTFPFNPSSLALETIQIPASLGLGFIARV

B1: Mlph-GTBDP, 26-residue Myo5a-GTD binding peptide of melanophilin with a C-terminal tyrosine (peptide)
peptide: RDQPLNSKKKKRLLSFRDVDFEEDSDY
  stimulation of the actin-activated ATPase activity of Myo5a-FL by Mlph-GTBDP (EGTA conditions, 40 uM actin), hyperbolic fit: apparent Kd: 19.8 µM
